According to US20180155451A1 (published 2018):

T1: FcγRIIa H (FcγRIIa, type H allotype, His at position 131), extracellular domain with C-terminal His tag (human, UniProt P12318 34-217)
T1 construct: extracellular domain; Soluble receptor expressed in FreeStyle293 cells; analyte in Biacore; also called FcgRIIa H; 2aH; not shown: C-terminal His tag
T1 sequence (looked up): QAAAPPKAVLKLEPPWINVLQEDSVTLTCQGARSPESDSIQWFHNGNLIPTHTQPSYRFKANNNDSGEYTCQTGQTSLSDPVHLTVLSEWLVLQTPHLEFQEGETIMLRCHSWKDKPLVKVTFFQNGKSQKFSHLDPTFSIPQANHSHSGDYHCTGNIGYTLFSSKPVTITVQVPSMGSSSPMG

T2: FcγRIIb, extracellular domain with C-terminal His tag (human, UniProt P31994 43-217)
T2 construct: extracellular domain; Soluble receptor expressed in FreeStyle293 cells; analyte in Biacore; also called FcgRIIb; 2b; not shown: C-terminal His tag
T2 sequence (looked up): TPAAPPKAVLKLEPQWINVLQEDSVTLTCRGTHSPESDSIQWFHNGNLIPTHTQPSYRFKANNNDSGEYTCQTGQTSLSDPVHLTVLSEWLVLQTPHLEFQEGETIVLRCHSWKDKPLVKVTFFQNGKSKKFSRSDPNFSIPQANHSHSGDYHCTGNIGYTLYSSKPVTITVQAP

B1: GpH7-A5/GpH7-B3 variant E269_19Q/GpL16-k0 (antibody, human IgG1, kappa)
heavy 1: not shown
heavy 2: not shown
light: DIVMTQSPLSLPVTPGEPASISCQASESLVHSNRNTYLHWYLQKPGQSPQLLIYKVSNRFSGVPDRFSGSGSGTDFTLKISRVEAEDVGVYYCSQNTHVPPTFGQGTKVEIERTVAAPSVFIFPPSDEQLKSGTASVVCLLNNFYPREAKVQWKVDNALQSGNSQESVTEQDSKDSTYSLSSTLTLSKADYEKHKVYACEVTHQGLSSPVTKSFNRGEC
notes: Heterodimerized IgG1; mutation only in the GpH7-B3 chain; also called He Ab
B2: GpH7-A5/GpH7-B3 variant E269_20W/GpL16-k0 (antibody, human IgG1, kappa)
heavy 1: not shown
heavy 2: not shown
light: B1 light
notes: as for B1
B3: GpH7-A5/GpH7-B3 variant P271_15Y/GpL16-k0 (antibody, human IgG1, kappa)
heavy 1: not shown
heavy 2: not shown
light: B1 light
notes: as for B1
B4: GpH7-A5/GpH7-B3 variant P271_20W/GpL16-k0 (antibody, human IgG1, kappa)
heavy 1: not shown
heavy 2: not shown
light: B1 light
notes: as for B1
B5: GpH7-A5/GpH7-B3 variant Q295_03V/GpL16-k0 (antibody, human IgG1, kappa)
heavy 1: not shown
heavy 2: not shown
light: B1 light
notes: as for B1
B6: GpH7-A5/GpH7-B3 variant Q295_05P/GpL16-k0 (antibody, human IgG1, kappa)
heavy 1: not shown
heavy 2: not shown
light: B1 light
notes: as for B1
B7: GpH7-A5/GpH7-B3 variant Q295_07I/GpL16-k0 (antibody, human IgG1, kappa)
heavy 1: not shown
heavy 2: not shown
light: B1 light
notes: as for B1
B8: GpH7-A5/GpH7-B3 variant Q295_11K/GpL16-k0 (antibody, human IgG1, kappa)
heavy 1: not shown
heavy 2: not shown
light: B1 light
notes: as for B1
B9: GpH7-A5/GpH7-B3 variant Q295_12R/GpL16-k0 (antibody, human IgG1, kappa)
heavy 1: not shown
heavy 2: not shown
light: B1 light
notes: as for B1
B10: GpH7-A5/GpH7-B3 variant Q295_13S/GpL16-k0 (antibody, human IgG1, kappa)
heavy 1: not shown
heavy 2: not shown
light: B1 light
notes: as for B1
B11: GpH7-A5/GpH7-B3 variant Q295_16H/GpL16-k0 (antibody, human IgG1, kappa)
heavy 1: not shown
heavy 2: not shown
light: B1 light
notes: as for B1
B12: GpH7-A5/GpH7-B3 variant Q295_20W/GpL16-k0 (antibody, human IgG1, kappa)
heavy 1: not shown
heavy 2: not shown
light: B1 light
notes: as for B1
B13: GpH7-A5/GpH7-B3 variant S298_03V/GpL16-k0 (antibody, human IgG1, kappa)
heavy 1: not shown
heavy 2: not shown
light: B1 light
notes: as for B1
B14: GpH7-A5/GpH7-B3 variant S298_07I/GpL16-k0 (antibody, human IgG1, kappa)
heavy 1: not shown
heavy 2: not shown
light: B1 light
notes: as for B1
B15: GpH7-A5/GpH7-B3 variant S298_10E/GpL16-k0 (antibody, human IgG1, kappa)
heavy 1: not shown
heavy 2: not shown
light: B1 light
notes: as for B1
B16: GpH7-A5/GpH7-B3 variant S298_14T/GpL16-k0 (antibody, human IgG1, kappa)
heavy 1: not shown
heavy 2: not shown
light: B1 light
notes: as for B1
B17: GpH7-A5/GpH7-B3 variant S298_16H/GpL16-k0 (antibody, human IgG1, kappa)
heavy 1: not shown
heavy 2: not shown
light: B1 light
notes: as for B1
B18: GpH7-A5/GpH7-B3 variant S298_18N/GpL16-k0 (antibody, human IgG1, kappa)
heavy 1: not shown
heavy 2: not shown
light: B1 light
notes: as for B1
B19: GpH7-A5/GpH7-B3 variant S298_19Q/GpL16-k0 (antibody, human IgG1, kappa)
heavy 1: not shown
heavy 2: not shown
light: B1 light
notes: as for B1

target: T1, FcγRIIa H (FcγRIIa, type H allotype, …); assay: SPR (Biacore), captured antibody, FcγR as analyte

| Binder | He/Con_2aH |
| --- | --- |
| B1 | 80.2 relative, GpH7-A5/GpH7-B3/GpL16-k0 = 100 |
| B2 | 60.9 relative, GpH7-A5/GpH7-B3/GpL16-k0 = 100 |
| B3 | 64.6 relative, GpH7-A5/GpH7-B3/GpL16-k0 = 100 |
| B4 | 77.4 relative, GpH7-A5/GpH7-B3/GpL16-k0 = 100 |
| B5 | 92 relative, GpH7-A5/GpH7-B3/GpL16-k0 = 100 |
| B6 | 103 relative, GpH7-A5/GpH7-B3/GpL16-k0 = 100 |
| B7 | 102 relative, GpH7-A5/GpH7-B3/GpL16-k0 = 100 |
| B8 | 89.4 relative, GpH7-A5/GpH7-B3/GpL16-k0 = 100 |
| B9 | 84.1 relative, GpH7-A5/GpH7-B3/GpL16-k0 = 100 |
| B10 | 69.4 relative, GpH7-A5/GpH7-B3/GpL16-k0 = 100 |
| B11 | 78.6 relative, GpH7-A5/GpH7-B3/GpL16-k0 = 100 |
| B12 | 55.6 relative, GpH7-A5/GpH7-B3/GpL16-k0 = 100 |
| B13 | 85.1 relative, GpH7-A5/GpH7-B3/GpL16-k0 = 100 |
| B14 | 86.9 relative, GpH7-A5/GpH7-B3/GpL16-k0 = 100 |
| B15 | 58 relative, GpH7-A5/GpH7-B3/GpL16-k0 = 100 |
| B16 | 98.5 relative, GpH7-A5/GpH7-B3/GpL16-k0 = 100 |
| B17 | 82.1 relative, GpH7-A5/GpH7-B3/GpL16-k0 = 100 |
| B18 | 61.6 relative, GpH7-A5/GpH7-B3/GpL16-k0 = 100 |
| B19 | 91 relative, GpH7-A5/GpH7-B3/GpL16-k0 = 100 |

target: T2, FcγRIIb, extracellular domain with …; assay: SPR (Biacore), captured antibody, FcγR as analyte

| Binder | He/Con_2b |
| --- | --- |
| B1 | 44.3 relative, GpH7-A5/GpH7-B3/GpL16-k0 = 100 |
| B2 | 42.5 relative, GpH7-A5/GpH7-B3/GpL16-k0 = 100 |
| B3 | 52.3 relative, GpH7-A5/GpH7-B3/GpL16-k0 = 100 |
| B4 | 58.1 relative, GpH7-A5/GpH7-B3/GpL16-k0 = 100 |
| B5 | 75.7 relative, GpH7-A5/GpH7-B3/GpL16-k0 = 100 |
| B6 | 67.5 relative, GpH7-A5/GpH7-B3/GpL16-k0 = 100 |
| B7 | 84.3 relative, GpH7-A5/GpH7-B3/GpL16-k0 = 100 |
| B8 | 70.4 relative, GpH7-A5/GpH7-B3/GpL16-k0 = 100 |
| B9 | 65.2 relative, GpH7-A5/GpH7-B3/GpL16-k0 = 100 |
| B10 | 56.9 relative, GpH7-A5/GpH7-B3/GpL16-k0 = 100 |
| B11 | 62.7 relative, GpH7-A5/GpH7-B3/GpL16-k0 = 100 |
| B12 | 44.4 relative, GpH7-A5/GpH7-B3/GpL16-k0 = 100 |
| B13 | 64.5 relative, GpH7-A5/GpH7-B3/GpL16-k0 = 100 |
| B14 | 70.6 relative, GpH7-A5/GpH7-B3/GpL16-k0 = 100 |
| B15 | 47.6 relative, GpH7-A5/GpH7-B3/GpL16-k0 = 100 |
| B16 | 77.9 relative, GpH7-A5/GpH7-B3/GpL16-k0 = 100 |
| B17 | 63.5 relative, GpH7-A5/GpH7-B3/GpL16-k0 = 100 |
| B18 | 48.1 relative, GpH7-A5/GpH7-B3/GpL16-k0 = 100 |
| B19 | 73.3 relative, GpH7-A5/GpH7-B3/GpL16-k0 = 100 |

target: T1, FcγRIIa H (FcγRIIa, type H allotype, …); assay: ratio of He/Con_2aH to He/Con_2b (FcγRIIa H over FcγRIIb), SPR

| Binder | He_2aH/2b (IIaH/IIb) |
| --- | --- |
| B1 | 1.81 |
| B2 | 1.43 |
| B3 | 1.24 |
| B4 | 1.33 |
| B5 | 1.22 |
| B6 | 1.53 |
| B7 | 1.21 |
| B8 | 1.27 |
| B9 | 1.29 |
| B10 | 1.22 |
| B11 | 1.25 |
| B12 | 1.25 |
| B13 | 1.32 |
| B14 | 1.23 |
| B15 | 1.22 |
| B16 | 1.26 |
| B17 | 1.29 |
| B18 | 1.28 |
| B19 | 1.24 |
